The assay deals with tropomyosin receptor kinase A (TrkA) (rat (endogenous in primary septal cholinergic neurons)) (UniProt P35739).
Chain of UniProt P35739 (P35739 33-799): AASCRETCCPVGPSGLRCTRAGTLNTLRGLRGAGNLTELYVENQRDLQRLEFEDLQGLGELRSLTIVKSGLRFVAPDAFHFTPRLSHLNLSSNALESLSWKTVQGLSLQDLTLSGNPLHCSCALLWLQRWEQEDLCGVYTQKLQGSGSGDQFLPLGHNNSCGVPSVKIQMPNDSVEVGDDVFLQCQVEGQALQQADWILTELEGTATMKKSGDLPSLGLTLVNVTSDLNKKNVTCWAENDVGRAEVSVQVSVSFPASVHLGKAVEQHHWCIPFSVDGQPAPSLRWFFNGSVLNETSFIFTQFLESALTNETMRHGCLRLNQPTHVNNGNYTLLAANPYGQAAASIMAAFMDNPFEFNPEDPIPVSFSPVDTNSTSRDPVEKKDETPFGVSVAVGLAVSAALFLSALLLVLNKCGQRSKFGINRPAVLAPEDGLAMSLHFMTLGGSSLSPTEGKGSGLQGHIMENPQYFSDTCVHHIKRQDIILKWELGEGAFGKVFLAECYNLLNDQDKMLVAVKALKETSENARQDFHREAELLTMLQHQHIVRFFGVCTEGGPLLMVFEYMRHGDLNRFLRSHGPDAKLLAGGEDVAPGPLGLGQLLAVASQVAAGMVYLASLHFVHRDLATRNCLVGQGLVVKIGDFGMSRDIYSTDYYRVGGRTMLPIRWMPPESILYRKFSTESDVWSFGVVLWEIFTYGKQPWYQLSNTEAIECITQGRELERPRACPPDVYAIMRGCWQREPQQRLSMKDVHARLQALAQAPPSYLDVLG

Regarding “Nerve Growth Factor (NGF), murine (from UniProt P01139 122-241) (ligand)”, the pTrkA (Y490) level by western blot, cholinergic neurons treated 7′ with 100 ng/mL (3.84 nM) NGF was 161 % of CTR.

Turning to “human NGF 1–14 sequence, monomeric hNGF1–14 peptide”, the pTrkA (Y490) level by western blot, cholinergic neurons treated 7′ with 10 μM peptide was 153 % of CTR.

As to hNGF1–15 dimer (peptide), the pTrkA (Y490) level by western blot, cholinergic neurons treated 7′ with 10 μM peptide is 155 % of CTR.

In the case of acetylated monomer Ac-hNGF1–14 peptide, the pTrkA (Y490) level by western blot, cholinergic neurons treated 7′ with 10 μM peptide was 296 % of CTR.

The values are drawn from paper PMC7072391.
